B1: SIAH1^SBD (tag-cleaved) (enzyme)
chain: VANSVLFPCKYASSGCEITLPHTEKADHEELCEFRPYSCPCPGASCKWQGSLDAVMPHLMHQHKSITTLQGEDIVFLATDINLPGAVDWVMMQSCFGFHFMLVLEKQEKYDGHQQFFAIVQLIGTRKQAENFAYRLELNGHRRRLTWEATPRSIHEGIATAIMNSDCLVFDTSIAQLFAENGNLGINVTISMC
B2: BCL6^241-260 peptide (peptide)
peptide: EYSRPTLEVSPNVCHSNIYS

One assay deals with BCL6^5-360 (ITC) (UniProt P41182 5-360). Put plainly: ITC; also printed as Kd = 1.6 uM.
In the assay “SIAH1^SBD (tag-cleaved)” the target is B1. Put plainly: ITC.

For orientation: Kd means the concentration at which binding is half-saturated. Low values mean tighter binding, high ones weaker binding.

B1 returned a dissociation constant Kd with BCL6^5-360 (ITC) of 1.57 µM.

In the case of B2, in the assay with SIAH1^SBD (tag-cleaved), the Kd came out at 6.3 µM.
